Like-named read-outs stand apart in the source and are kept apart here.
Tests used:
[1] = target: T1, recombinant human insulin receptor (human, UniProt P06213-2 28-944, limits assumed); assay: SPR (BIAcore), IR amine-coupled to chip
T1 construct: Amine-coupled to a CM5 chip (8300 RU); also called IR
Experimental: (§1) In brief, 60 ug/mL of IR diluted in acetate 4.5 was coupled/immobilized to a level of 8300 RU and 11.9 ug/mL of VEGF-R2-Fc diluted in acetate 5.0 was immobilized to a level of 9700 RU on flow cells 2 and 3. A blank reference surface was prepared on FC 1. […] Fibronectin-based scaffold proteins were diluted to 10 uM in HBS-EP (10 mM Hepes 150 mM NaCl 3 mM EDTA 0.05% Surfactant P20) and injected at 20 uL/min for 3 minutes over the flow cells at 25 C and dissociation was observed over 10 mins.

recombinant human IGF-IR [2] = target: T2, recombinant human IGF-IR (human, UniProt P08069 31-932); assay: competitive ELISA, coated IGF-IR, biotinylated IGF-I as competitor
T2 construct: Bought (R&D Systems); also called insulin-like growth factor-I receptor; IGF-1R
Experimental: (§2) MaxiSorp™ plates (Nunc International, Rochester, N.Y.) were coated with 30 nM IGF-IR in PBS at 4° C. overnight followed by blocking in OptEIA buffer (BD biosciences, San Diego, Calif.) for 3 hours at room temperature. Purified fibronectin-based scaffold proteins in OptEIA buffer were bound to each well for 1 hour at room temperature at concentrations ranging from 50 pM to 1 μM. […] The excess ligand was removed by washing with PBST and bound ligand was detected with streptavidin-HRP (Pierce, Rockford, Ill.) using TMB detection reagents (BD biosciences) according to the manufacturer's instructions

[3] = target: T1, recombinant human insulin receptor; assay: SPR (BIAcore); IR amine-coupled to chip, clone at 10 µM, signal as % of insulin signal
Experimental: (§3) One liter E. coli growths of selected optimized clones were prepared and the proteins were purified.
as §1

recombinant human IGF-IR [4] = target: T2, recombinant human IGF-IR; assay: competitive ELISA: plate coated with 30 nM IGF-IR, clone bound first, then 10 nM biotinylated IGF-I as the blocked ligand, streptavidin-HRP/TMB, OD450
Experimental: as §2

human IGF-IR on cells [5] = target: T3, human IGF-IR on cells (human, UniProt P08069 31-1367); assay: displacement of 40 pM [125I]-IGF-I from MCF-7 cells, on ice, cell-bound CPM
T3 construct: whole, on cells; also called IGF-IR-expressing cancer cell line; MCF-7
Experimental: (§4) Cells were subsequently lysed and radioactivity was quantitated.
(§5) The human breast adenocarcinoma MCF-7 (ATCC, Manassas, Va.) was plated in 24 well plates at a concentration of 50,000 cells per well in RPMI 1640 (Invitrogen, Carlsbad, Calif.) containing 10% fetal bovine serum (Hyclone, Logan, Utah). The following day, cells were washed in binding buffer consisting of RPMI 1640 containing 0.1% BSA (Sigma, St. Louis, Mo.), and then pre-incubated for 30 minutes on ice in 200 μL binding buffer containing IGF-IR competitor. […] The wells were then washed with ice cold PBS containing 0.1% BSA. Cells were lysed with 500 μL buffer consisting of 0.1% SDS+0.5 N NaOH. Radioactivity of the lysates was measured using a Wallac 1470 Gamma Counter (Perkin Elmer, Wellesley, Mass.), and the data were analyzed using SigmaPlot (Systat Software, Point Richmond, Calif.).

human IGF-IR on cells [6] = target: T3, human IGF-IR on cells; assay: cell-based or functional assay
IGF-IR-Fc = target: T4, IGF-IR-Fc (human, UniProt P08069 31-932); assay: SPR (BIAcore); IGF-IR-Fc captured on Protein A, clone in solution
T4 construct: range 1-932; Made in house by transient transfection, captured on Protein A on CM5 chips for kinetic analysis; also called human IGF-IR-Fc fusion protein; recombinant, immobilized IGF-IR (BIAcore); not shown: hinge and constant regions of human IgG1
Experimental: One liter E. coli growths of selected optimized clones were prepared and the proteins were purified. Surface plasmon resonance (BIAcore) analysis was performed using recombinant, immobilized IGF-IR and solution-phase clones in order to determine binding kinetics and binding affinities.
The binding kinetics of fibronectin-based scaffold proteins binding proteins to the target was measured using BIAcore 2000 or 3000 biosensors (Pharmacia Biosensor). A capture assay was developed utilizing an IGF-IR-Fc fusion. A similar reagent had been described by Forbes et al. (Forbes et al. 2002, European J. Biochemistry, 269, 961-968). The extracellular domain of human IGF-IR (aa 1-932) was cloned into a mammalian expression vector containing the hinge and constant regions of human IgG1. Transient transfection of the plasmid produced a fusion protein, IGF-IR-Fc which was subsequently purified by Protein A chromatography and captured on Protein A immobilized on Biasensor CM5 chips by amine coupling. The kinetic analysis involved the capture of IGF-IR-Fc on Protein A followed by injection of the fibronectin-based scaffold protein in solution and regeneration of the Protein A surface by glycine pH 2.0. Sensorgrams were obtained at each concentration and were evaluated using a program Biaevaluation, BIA Evaluation 2.0 (BIAcore), to determine the rate constants kₐ (kₒₙ) and kd (koff) The dissociation constant, KD was calculated from the ratio of rate constants koff/kₒₙ. Typically, a concentration series (2 uM to 0 uM) of purified fibronectin-based scaffold protein was evaluated for binding to protein A captured human IGF-IR-Fc fusion protein.

human IGF-IR on cells [7] = target: T3, human IGF-IR on cells; assay: displacement of [125I]-IGF-I from MCF-7 cells
Experimental: as §4, §5

recombinant human IGF-IR [8] = target: T2, recombinant human IGF-IR; assay: direct binding ELISA: plate coated with 10 nM IGF-IR, His-tagged clone detected with His-HRP probe, TMB, OD450
Experimental: MaxiSorp™ plates (Nunc International, Rochester, N.Y.) were coated with 10 nM IGF-IR in PBS at 4° C. overnight followed by blocking in PBS-casein buffer (Pierce) for 3 hours at room temperature. Purified fibronectin-based scaffold proteins in casein buffer were bound to each well for 1 hour at room temperature at a concentration of 5 nM. The plate was washed with PBST and 100 μl of a 1:4000 dilution of His-HRP probe (Pierce) was added to each well with incubation for 15 min at room temperature. The wells were washed 5 times with PBST and the bound HRP was detected with TMB detection reagents (BD biosciences) according to the manufacturer's instructions.

[9] = target: T1, recombinant human insulin receptor; assay: SPR (BIAcore), IR amine-coupled to chip; remark: listed apart in the source
Experimental: as §3, §1

Row | binding result [1] | IC50 (recombinant human IGF-IR [2]) | % IR Binding at 10 µM [3] | IC50 (read off the curve) (recombinant human IGF-IR [4]) | IC50 (read off the curve) (human IGF-IR on cells [5]) | IC50, IGF-I-dependent proliferation of BxPC-3 cells (3H-thymidine) (human IGF-IR on cells [6]) | Kd (IGF-IR-Fc) | koff (IGF-IR-Fc) | kon (IGF-IR-Fc) | IC50 (human IGF-IR on cells [7]) | EC50 (read off the curve) (recombinant human IGF-IR [8]) | binding result [9] | Binder
1 | no binding (tested: 10 µM) | ≤ 1 nM | 2% | ~0.7 nM | ~1 nM | 10 to 20 nM | 0.069 nM | 0.00043 s⁻¹ | ~6.2e+06 M⁻¹ s⁻¹ | 1 to 2 nM | ~2 nM | – | 338A06 (designed binder, Optimized derivative of 218C04; also called clone 338A06; parent clone 338A06) VSDVPRDLEVVAATPTSLLISWSARLKVARYYRITYGETGGNSPVQEFTVPKNVYTATISGLKPGVDYTITVYAVTKMRDYRPISINYRTHHHHHH
2 | – | – | – | ~1 nM | – | – | 0.057 nM | 0.00022 s⁻¹ | 3.8e+06 M⁻¹ s⁻¹ | – | – | no binding (tested: 10 µM) | 353H09 (designed binder, Optimized derivative of 218C04) VSDVPRDLEVVAATPTSLLISWSDKLKVQRYYRITYGETGGNSPVQEFTVPKHDRTATISGLKPGVDYTITVYAVTKMRDYRPISINYRTHHHHHH

From patent US20130310317A1 (Bristol-Myers Squibb, published 2013)
